Columns and labels:
human thrombin (human) = human thrombin (human) (UniProt P00734)

inhibition of α-thrombin digesting Chromozym TH (α-thrombin): 82%
titration against 2.0 nM thrombin in presence of 200 µM D-Val-Leu-Arg-p-nitroanilide: fraction of active molecules (human thrombin (human)): 0.97
Substance: [Cys^33 ]HV1--[Cys^33 ]HV1 dimer
